Drawing on publication PMC10156745, “Tuning charge density of chimeric antigen receptor optimizes tonic signaling and CAR-T cell fitness” (Cell Research, 2023), this text covers EC50 for one molecule.

This assay has as its target T1, CD19 on Nalm6 cells (Homo sapiens, UniProt P15391).
T1 construct: CD19 (B-lymphocyte antigen CD19) on the surface of Nalm6 cells; this is surmised; source: Nalm6 cells expressing CD19 on the cell surface
Briefly: flow cytometry on cells; purified antibodies titrated on Nalm6 cells expressing CD19; cell-based FACS assay. The settings on record: one partner purified.

T1 sequence (P15391 20-556): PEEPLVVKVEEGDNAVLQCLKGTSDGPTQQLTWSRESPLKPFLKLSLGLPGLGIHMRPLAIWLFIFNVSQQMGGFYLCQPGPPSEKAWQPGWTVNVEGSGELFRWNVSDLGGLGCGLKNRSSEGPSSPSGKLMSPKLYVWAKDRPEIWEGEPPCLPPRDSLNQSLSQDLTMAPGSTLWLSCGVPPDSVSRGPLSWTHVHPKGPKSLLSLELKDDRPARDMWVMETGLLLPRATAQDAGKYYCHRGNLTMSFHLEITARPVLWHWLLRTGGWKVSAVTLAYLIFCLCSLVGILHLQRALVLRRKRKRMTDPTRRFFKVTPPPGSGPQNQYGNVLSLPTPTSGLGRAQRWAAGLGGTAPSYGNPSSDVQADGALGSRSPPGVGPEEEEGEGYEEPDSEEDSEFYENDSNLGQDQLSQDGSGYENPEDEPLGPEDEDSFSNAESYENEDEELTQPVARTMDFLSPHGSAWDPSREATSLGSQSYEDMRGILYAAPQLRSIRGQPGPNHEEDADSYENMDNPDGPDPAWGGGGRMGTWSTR

B1: CD19^M1 antibody (antibody, V domains shown)
VH: EVKLKESGPGLVAPSQSLSVTCKASGVSLPDYGVSWIRQPPRKGLEWLGVIWGSETTYYNSALKSRLTIIKDNSKSQVFLKMNSLQTDDTAIYYCAKHYYYGGSYAMDYWGQGTSVTVSS
VL: DIKMTQTTSSLSASLGDRVTISCRASQDISKYLNWYQQKPDGTVKLLIYHTSRLHSGVPSRFSGSGSGTDYSLTISNLEQEDIATYFCQQGNTLPYTFGGGTKLEIK
notes: as the VH of m1 (FMC63) with uncharged framework residues mutated to lysines; human IgG1 constant region, fused to the variable region in the pCMV plasmid; as the VL of m1 (FMC63) with uncharged framework residues mutated to lysines; light-chain constant region; IgG1 format; Variant of FMC63 with positively charged patches introduced into the framework regions; also called PCP-modified CD19 …
B1 showed an EC50 of 2.6 nM.

Broadly, the EC50 is the concentration giving half of the maximal effect. A high value points to weaker potency.
